Measured values from publication PMC5452035 (2017).
Non-standard residues stand in square brackets, D forms with d. No end group written: not given here. pT = C[C@@H](OP(=O)(O)O)[C@H](N)C(=O)O; FAM = 5,6-carboxyfluorescein

Molecular target: T1, Rtt103p CID Q19A (Saccharomyces cerevisiae)
T1 chain: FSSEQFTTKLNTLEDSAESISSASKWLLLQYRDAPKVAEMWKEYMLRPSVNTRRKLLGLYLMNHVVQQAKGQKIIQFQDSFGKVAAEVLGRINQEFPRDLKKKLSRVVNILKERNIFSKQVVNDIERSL
Experiment: FP

Binder: {FAM}-PSYSP[pT]SPSYSPTSPS [FAM-PSYSP(pT)SPSYSPTSPS]
- Kd: 48 µM
